From US6770740B1, “Crosslinked DNA condesate compositions and gene delivery methods” (The Regents of the University of Michigan, priority 1999, dated 2004)
Where no end group is shown, it is not given here. The star is where a group is joined. Carboxymethyl = O=C(O)C*

Tests used:
[1] = QELS particle size and zeta potential of peptide DNA condensates, Example 6; assay type: physicochemical; settings: charge ratio 4:1, 50 μg/ml DNA in HBM; for Particle Size (nm): 90°, average and SD of three, No particles formed; for Zeta Potential (mV): average and SD of ten
Protocol: The particle size and zeta potential of peptide DNA condensates were determined by quasielastic light scattering (QELS) using a Brookhave ZetaPlus™. Particle size analysis was performed in triplicate at a DNA concentration of 50 μg/ml in HBM at a charge ratio of 4:1 and a scattering angle of 90°. Data analysis utilized a multimodal volume distribution option included with the instrument. Zeta potential was also determined using 50 μg/ml peptide DNA condensates prepared at a 4:1 charge ratio in HBM. The reported zeta potential was averaged from ten determinations.

[2] = QELS particle size and zeta potential of cross-linking peptide DNA condensates, Example 5; assay type: physicochemical; settings: for Particle Size Mean Diameter, Oxidized, 15° / Particle Size Mean Diameter, Oxidized, 90°: HBM after 2 h incubation, 50 μg/ml DNA, 0.4 nmol peptide per μg DNA; for Particle Size Mean Diameter, Oxidized, 15°: scattering angle 15°; for Particle Size Mean Diameter, Oxidized, 90°: scattering angle 90°; for Particle Size Mean Diameter, Saline: HBM with added saline (0.15 M) after 15 min; for Particle Size Mean Diameter, Reduced: following addition of TCEP (1 mM)
Outline: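 Condensates at 50 μg/ml DNA in HBM, 0.4 nmol peptide per μg DNA (charge ratio ~2:1); size by QELS at 15° and 90°, mean diameter from diffusion coefficient by unimodal cumulant analysis. Peptide IV series: 7.5-37.5 nmol peptide with 75 μg DNA, charge ratio 0.5-2.5; zeta potential averaged over 10 determinations.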

[3] = Shear stress stability (salt sonication assay), Example 6; assay type: physicochemical; settings: 30 sec sonication; highest tested 2.5 M
Protocol: The relative stability of peptide DNA condensates were examined using a salt sonication assay (Adami and Rice, 1999). Peptide DNA condensates (200 μl of 50 μg/ml) were formed as described above, incubated at RT for 30 min and then combined with 0-200 μl of 5 m […] and normalized to 400 μl with HBM to achieve a final sodium chloride concentration of 0, 0.2, 0.4, 0.8, 1.0, 1.5, 2.0 and 2.5 M. Each sample was sonicated for 30 sec with a 100 W Microson™ XL-2000 ultrasonic probe homogenizer (Kontes, Vineland N.J.) with a vibrational amplitude of 5 fragment uncondensed DNA. DNA condensates were digested with 30 μg to trypsin for 12 h at 37° C., electrophoresed on a 1% agarose gel electrophoresed in TEA buffer for 2 h, then visualized by ethidium bromide staining and destaining prior to photography on a transilluminator.

[4] = system: HepG2, COS 7 and CHO cells; experiment: Luciferase gene expression, result stated for each of three cell lines, Example 6; assay type: cell-based
Protocol: HepG2 cells (1.5×10^5) were plated on 6×35 mm wells and grown to 50% confluencey in MEM supplemented with 10% FBS, penicillin and streptomycin (100 U/ml), sodium pyruvate (100 mM), and L-glutamine (2 mM). Transfections were performed in MEM (2 ml per 35 mm well) with 2% FBS with and without 80 μM chloroquine. Peptide DNA condensates (10 μg of DNA of 0.2 ml HBM) were added dropwise to triplicate wells. After a 5 h incubation at 37° C., the medium was replaced with MEM supplemented with 10% FBS. After 24 h, cells were washed with ice-cold phosphate buffered saline (calcium and magnesium free) and then treated with 0.5 ml of ice-cold lysis buffer (25 mM) Tris chloride pH 7.8, 1 mM EDTA, 8 mM magnesium chloride, 1% Triton X-100, 1 mM DTT) for 10 min. […]
Lysis buffer (300 μl), sodium-ATP (4 μl of a 180 mM solution, pH 7, 4° C.) and cell lysate (100 μl, 4° C.) were combined in a test tube, briefly mixed and immediately placed in the luminometer. Luciferase relative light units (RLU) were recorded on a Lumat™ LB 9501 (Berthoid Systems, Germany) with 10 sec integration after automatic injection of 100 μl of 0.5 mM D-luciferin (prepared fresh in lysis buffer without DTT). […] Protein concentrations were measured by Bradford assay using bovine serum albumin as a standard (Bradford, 1976). […]

[5] = system: HepG2 cells; experiment: Cell uptake of 125I-DNA condensates in HepG2 cells, Example 5; assay type: cell-based; settings: HepG2, 5 h transfection
Protocol: Iodinated plasmid DNA (pCMVL) was prepared with specific activity of 300 nCi per μg of DNA as described previously (Terebesi et al., 1998). Prior to forming DNA condensates, the specific activity of the ^125I DNA was adjusted to 4.5 nCi μg of DNA by combining with unlabeled plasmid. DNA condensates were prepared using AlkCWK18 or peptide II as described above. Peptide ^125I-DNA condensates (10 μg) were used to transfect HepG2 and COS 7 cells for 5 h according to the procedure described above. The radioactive media was removed, cells were washed once with 2 ml of 1 M sodium chloride and three times with 2 ml of cold PBS and then harvested with 1 ml of lysis buffer. The cell-associated radioactivity from triplicate transfections was quantified by gamma counting.

[6] = Shear stress stability of cross-linked DNA condensates (salt sonication), Example 5; assay type: physicochemical; settings: 30 sec sonication; highest lane 2.5 M
Protocol: Peptide DNA condensates (200 μl of 50 μg/ml) were formed and incubated at RT for 30 min and then combined with 0 to 200 μl of 5 M sodium chloride and normalized to 400 μl with HBM to achieve a final sodium chloride concentration of 0, 0.2, 0.4, 0.8, 1.0, 1.5, 2.0, and 2.5 M. Each sample was sonicated for 30 sec with a 100 W Microson™ XL-2000 ultrasonic probe homogenizer (Kontes, Vineland N.J.) with a vibrational amplitude of 6 to fragment uncondensed DNA (Adami et al., 1998). DNA condensates were digested with 30 μg of trypsin for 12 h at 37° C. then electrophoresed on an agarose gel and visualized by ethidium bromide staining.

Substance | Particle Size (nm) [1] | Zeta Potential (mV) [1] | Particle Size Mean Diameter, Oxidized, 15° [2] | Particle Size Mean Diameter, Oxidized, 90° [2] | Particle Size Mean Diameter, Saline [2] | Particle Size Mean Diameter, Reduced [2] | sodium chloride concentration up to which DNA condensates are stable [3] | lower gene expression in the absence of chloroquine relative to presence of 80 μM chloroquine ([4]; in each cell line) | 125I-DNA uptake, % of dose [5] | sodium chloride concentration up to which DNA is protected from sonicative fragmentation [6] | enhancement of gene expression over peptide 1 DNA condensates ([4]; in each cell line tested, charge ratio 4, 80 μM chloroquine)
Alk-S-Cys-Trp-Lys18 (C(Carboxymethyl)WKKKKKKKKKKKKKKKKKK) [AlkCWK18] | 64 ± 11 nm | 26 ± 1 mV | 97 nm | 95 nm | 1215 nm | 74 nm | 0.4 M | 10-15 fold | 9.5 % of dose | 0.4 M | 
Cys-Trp-Lys17-Cys (CWKKKKKKKKKKKKKKKKKC) [Peptide II] | 53 ± 16 nm | 28 ± 9 mV | 31 nm | 42 nm | 257 nm | 121 nm | 1 M |  | 8.7 % of dose | 1.0 M | 10 to 40 fold
